Drawing on patent publication US20260356958 (published 2026), this text covers Kd for five molecules.

Substitutions are numbered along the chain they refer to. Like-named read-outs stand apart in the source and are kept apart here.

Assay in all cases: SPR, 25C
For orientation: SPR reads the build-up and loss of mass on a sensor chip optically.

In experiment [1] the target is hIL-1R3-His (human).
The target in experiment [2] is hIL-1R3-His (human). This is another data set of the same source.
For experiment [3], the target named is T1, hIL-36R-His (human).
T1 chain: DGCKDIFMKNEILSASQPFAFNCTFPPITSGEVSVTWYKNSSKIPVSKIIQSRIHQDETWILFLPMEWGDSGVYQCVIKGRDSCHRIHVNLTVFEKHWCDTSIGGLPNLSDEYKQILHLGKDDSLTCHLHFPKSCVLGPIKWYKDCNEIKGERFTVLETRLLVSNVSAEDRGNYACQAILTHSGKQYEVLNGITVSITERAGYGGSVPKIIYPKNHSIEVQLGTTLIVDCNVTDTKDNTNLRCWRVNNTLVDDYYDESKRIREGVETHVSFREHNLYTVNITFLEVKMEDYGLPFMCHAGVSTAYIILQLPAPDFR

Experiment [4] concerns the target T1, hIL-36R-His.
Experiment [5] concerns the target T1, hIL-36R-His.

One may read the Kd as the free concentration of one partner at which half of the binding sites on the other are occupied at equilibrium, for simple one-to-one binding. A lower Kd goes with higher affinity.

hIL-1R3-His (human), sequence (chain, as listed by the source): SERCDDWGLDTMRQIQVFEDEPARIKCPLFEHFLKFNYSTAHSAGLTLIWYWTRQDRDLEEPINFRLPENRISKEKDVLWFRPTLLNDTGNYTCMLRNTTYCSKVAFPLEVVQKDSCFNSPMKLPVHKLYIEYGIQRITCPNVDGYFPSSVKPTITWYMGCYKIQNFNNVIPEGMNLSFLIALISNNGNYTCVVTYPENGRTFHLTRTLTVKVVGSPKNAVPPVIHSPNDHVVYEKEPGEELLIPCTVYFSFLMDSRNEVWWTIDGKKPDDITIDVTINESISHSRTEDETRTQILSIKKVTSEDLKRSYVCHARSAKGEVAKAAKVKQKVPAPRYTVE

B1: Crossmab bispecific antibody, IL-1R3 arm (antibody, V domains shown)
VH: EVQLVESGGGLVQPGGSLRLSCAASGFTFSSYAMSWVRQAPGKGLVWVAEISRGGSHTYYPDTVTGRFTISRDNAKNTLYLQMNSLRAEDTAVYYCARSYGNYPFDYWGQGTTVTVSS
VL: EIVLTQSPATLSLSPGERATLSCSASSSVSYMYWYQQKPGQAPRLLIYDTSNLASGIPARFSGSGSGTDFTLTISSLEPEDFAVYYCQQWSSYPLTFGQGTKLEIK
B1 yielded a Kd in the experiment with hIL-1R3-His [1] of 0.761 nM.

B2: Common light chain bispecific antibody, IL-1R3 arm (R1B9VH-h1+L36E9VK) (antibody, V domains shown)
VH: B1 VH
VL: EIVLTQSPGTLSLSPGERATLSCRASQSVIGSYLAWYQQKPGQAPRLLIYSASKLASGIPDRFSGSGSGTDFTLTISRLEPEDFAVYYCQQDTRYPITFGQGTKVEIK
On to B2, for which binding in the experiment with hIL-1R3-His [2] was characterised by a dissociation constant (Kd) of 1.44 nM.

B3: Common light chain bispecific antibody, IL-36R arm (R72B7VH+L36E9VK) (antibody, V domains shown)
VH: QVQLVQSGAEVKKPGASVKVSCKASGYSFTSSWIHWVKQAPGQGLEWMGEINPGNVRSNYNENFRNKVTMTVDTSISTAYMELSRLRSDDTAVYYCTVINYGEPYFASWGQGTLVTVSS
VL: B2 VL
On to B3, for which, in the experiment with hIL-36R-His [3], the Kd is 1.29 nM.

B4: R49E11VH-h3+L26B11VK (antibody, V domains shown)
VH: B3 VH with K38R, N55S, V56G, R65Q, N66G, K67R, I99V, N100F, A107P, S108F
VL: B2 VL with G31Y, L55R, D92H, T93A, R94G, Y95I, I97V
The molecule B4 had a Kd with hIL-36R-His [4] of 2.91 nM.

B5: Crossmab bispecific antibody, IL-36R arm (antibody, V domains shown)
VH: B3 VH with K38R, N55S, V56G, R65Q, N66G, K67R, I99V, N100F, A107P, S108F
VL: B2 VL with G31Y, L55R, D92H, T93A, R94G, Y95I, I97V
For the molecule B5, the affinity with hIL-36R-His [5], expressed as Kd, was 0.669 nM.
